Publication PMC4434759

Biological target: PsIAA4 PB1^AM3 (D151A/D153A/D155A) (pea (Pisum sativum))
Experiment: ITC

Kd: 6.4 µM
stoichiometry N: 1
Substance: PsIAA4 PB1^BM3 (K96A/R106A/K107A) (domain or fragment)
